The values that follow come from PMC4573853 (Genes & Development, 2015).

No end group written: not given here.

Test [1] has as its target T1, Taf14 YEATS domain (residues 1-132) (S. cerevisiae, UniProt P35189 1-132).
T1 sequence (looked up): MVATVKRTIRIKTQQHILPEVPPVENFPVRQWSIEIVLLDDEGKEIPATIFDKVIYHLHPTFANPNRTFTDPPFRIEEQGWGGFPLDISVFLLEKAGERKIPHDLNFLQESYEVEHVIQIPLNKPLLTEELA
Put plainly: NMR titration.

In a further test the target is T2, Taf14 (residues 1-138) (S. cerevisiae, UniProt P35189 1-138).
T2 sequence (looked up): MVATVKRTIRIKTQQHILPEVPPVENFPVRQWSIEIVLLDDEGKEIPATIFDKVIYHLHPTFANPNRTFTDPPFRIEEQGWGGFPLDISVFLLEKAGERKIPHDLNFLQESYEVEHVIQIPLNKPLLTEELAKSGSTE
Put plainly: crystal structure.

B1: H3K9ac(5-13) peptide (peptide, UniProt P68431 6-14, looked up)
peptide: Ac-QTARK(Ac)STGG
Turning to B1, the binding result (in test [1]; with Taf14 (residues 1-138)) was “binds” in each case.
